Article PMC9378701, “SH3 domain regulation of RhoGAP activity: Crosstalk between p120RasGAP and DLC1 RhoGAP” (Nature Communications, 2022)
One block for each molecule: values may come before it.

Tests used:
[1] = biological target: DLC1 RhoGAP (Homo sapiens) (UniProt Q96QB1); assay: ITC; details: cited from earlier work
[2] = biological target: DLC1 RhoGAP (Homo sapiens) (UniProt Q96QB1); assay: kinetics; details: cited from earlier work
[3] = biological target: T1, DLC1 RhoGAP domain (residues 1074-1283), His6-tagged (human, UniProt Q96QB1 1074-1283); assay: crystal structure; copurified complex of DLC1 RhoGAP with p120RasGAP SH3 at 18 mg/ml; 0.2 M magnesium nitrate, 16.5% PEG 3350, hanging drops, ambient temperature (~22 °C); 3.2 Å, four copies of the complex in the asymmetric unit; details: both partners purified
T1 construct: RhoGAP domain of human DLC1A, residues 1074-1283 of UniProt Q96QB1 isoform 2; Vector pET28-MHL; also called DLC1A; His6-DLC1; source: E. coli BL21(DE3) or Rosetta(DE3), purified (Ni-NTA, SEC)
T1 sequence (looked up): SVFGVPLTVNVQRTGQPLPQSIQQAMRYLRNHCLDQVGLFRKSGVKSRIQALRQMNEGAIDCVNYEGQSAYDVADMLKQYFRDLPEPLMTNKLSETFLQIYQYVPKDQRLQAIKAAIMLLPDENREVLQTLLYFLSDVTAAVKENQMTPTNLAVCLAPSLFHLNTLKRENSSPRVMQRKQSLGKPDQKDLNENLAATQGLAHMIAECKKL

Sequence of DLC1 RhoGAP (Homo sapiens) (Q96QB1 1075-1287): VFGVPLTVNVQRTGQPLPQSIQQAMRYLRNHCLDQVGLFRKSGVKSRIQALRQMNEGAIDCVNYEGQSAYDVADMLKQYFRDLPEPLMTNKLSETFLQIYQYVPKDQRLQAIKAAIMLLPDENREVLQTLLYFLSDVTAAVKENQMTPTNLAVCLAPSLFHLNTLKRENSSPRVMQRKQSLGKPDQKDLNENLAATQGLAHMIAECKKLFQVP

Molecule: p120RasGAP SH3 (from UniProt P20936)
- Kd [1]: 600 nM
- Ki [2]: 600 nM

- binding result [3]: binds
B1: p120RasGAP SH3 domain (residues 281-341) (domain or fragment, human, UniProt P20936 281-341, looked up)
chain: RRRVRAILPYTKVPDTDEISFLKGDMFIVHNELEDGWMWVTNLRTDEQGLIVEDLVEEVGR
notes: SH3 domain of human p120RasGAP, residues 281-341 of UniProt P20936; Vector pGEX-6p1; also called SH3 WT; RASA1; source: E. coli BL21(DE3) or Rosetta(DE3), purified (glutathione Sepharose, PreScission cleavage on beads, SEC)
